Measurements: paper PMC11417369, “DNA sequence and chromatin differentiate sequence-specific transcription factor binding in the human malaria parasite Plasmodium falciparum”

T1: HDP1 homeodomain-like (Plasmodium falciparum, UniProt Q8IKH4 2990-3078)
T1 sequence: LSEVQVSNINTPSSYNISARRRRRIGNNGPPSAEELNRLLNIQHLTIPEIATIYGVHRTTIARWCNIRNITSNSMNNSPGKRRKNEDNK

T2: SIP2 D1 (Plasmodium falciparum, UniProt C6KSN9 177-235)
T2 sequence: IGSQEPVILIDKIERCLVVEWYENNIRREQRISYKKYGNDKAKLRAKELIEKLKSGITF

B1: GTGCAC_negctrl_site199 (dsDNA)
DNA 1: AAAATTATATTTTATAGAAATTTAAATAAATATATA
DNA 2: TATATATTTATTTAAATTTCTATAAAATATAATTTT
B2: GTGCAC_negctrl_site626 (dsDNA)
DNA 1: AAAATATAAATATATTTGAACATGGATCAAATGTAA
DNA 2: TTACATTTGATCCATGTTCAAATATATTTATATTTT
B3: GTGCAC_site10129 (dsDNA)
DNA 1: GCATATGTATATAATGTGCACATGGATTATATAAAA
DNA 2: TTTTATATAATCCATGTGCACATTATATACATATGC
B4: GTGCAC_negctrl_site266 (dsDNA)
DNA 1: AATCAATATAAATAAAATTTTTAATTTTAACCCTAA
DNA 2: TTAGGGTTAAAATTAAAAATTTTATTTATATTGATT
B5: GTGCAC_negctrl_site610 (dsDNA)
DNA 1: AATATATGGTTTCATGATATAAAATTCAATTTAATG
DNA 2: CATTAAATTGAATTTTATATCATGAAACCATATATT
B6: GTGCAC_negctrl_site428 (dsDNA)
DNA 1: AATATATGTATATATTTTTTTTTTTCCCTTACAAAT
DNA 2: ATTTGTAAGGGAAAAAAAAAAATATATACATATATT
B7: GTGCAC_negctrl_site636 (dsDNA)
DNA 1: TTTTGTTGAAAAAAAAAAAAAAAATTAAATTAAATT
DNA 2: AATTTAATTTAATTTTTTTTTTTTTTTTCAACAAAA
B8: GTGCAC_negctrl_site259 (dsDNA)
DNA 1: TATTTACAACAAATTTAATTATTTTTAACTTATAAA
DNA 2: TTTATAAGTTAAAAATAATTAAATTTGTTGTAAATA
B9: GTGCAC_negctrl_site503 (dsDNA)
DNA 1: AAACAAAAGTAGAAGGTAGAGTATTTTATATTTAAA
DNA 2: TTTAAATATAAAATACTCTACCTTCTACTTTTGTTT
B10: GTGCAC_site10721 (dsDNA)
DNA 1: ATATTATATCTAATCGTGCACAACTGTACATTTGTC
DNA 2: GACAAATGTACAGTTGTGCACGATTAGATATAATAT
B11: GTGCAC_negctrl_site82 (dsDNA)
DNA 1: CTGATATATTATTTATCTGAATATATTAATATGTAT
DNA 2: ATACATATTAATATATTCAGATAAATAATATATCAG
B12: GTGCAC_negctrl_site521 (dsDNA)
DNA 1: AGTGGAATGTATGATTTTCATTCCTTAAAATTTTAA
DNA 2: TTAAAATTTTAAGGAATGAAAATCATACATTCCACT
B13: GTGCAC_site10622 (dsDNA)
DNA 1: TATTATTCAAAATTTGTGCACAAAATTAAAGGAACA
DNA 2: TGTTCCTTTAATTTTGTGCACAAATTTTGAATAATA
B14: GTGCAC_negctrl_site204 (dsDNA)
DNA 1: TAATATGTTTATGGTAACATACAAAAATGTATATAT
DNA 2: ATATATACATTTTTGTATGTTACCATAAACATATTA
B15: GTGCAC_site10155 (dsDNA)
DNA 1: TTGATAAAATCACTGGTGCATGTAGATATATAATAT
DNA 2: ATATTATATATCTACATGCACCAGTGATTTTATCAA
B16: GTGCAC_site9953 (dsDNA)
DNA 1: ATATATCTTTATATAGTGCATTAAATATGTTGTAAT
DNA 2: ATTACAACATATTTAATGCACTATATAAAGATATAT
B17: GTGCAC_negctrl_site533 (dsDNA)
DNA 1: AAATTAATAAATATTTTTATAAATTATAATATTAAT
DNA 2: ATTAATATTATAATTTATAAAAATATTTATTAATTT
B18: GTGCAC_negctrl_site735 (dsDNA)
DNA 1: AAAATTAATTATTACAAAAATGAAAAGACATATTTT
DNA 2: AAAATATGTCTTTTCATTTTTGTAATAATTAATTTT
B19: GTGCAC_negctrl_site724 (dsDNA)
DNA 1: TCCTCAAAAAAATAAAATAATTTATACTTTTTTAAA
DNA 2: TTTAAAAAAGTATAAATTATTTTATTTTTTTGAGGA
B20: GTGCAC_site9580 (dsDNA)
DNA 1: ATTTTTATTTTTTTTGTGCACATTTTCATTTTCTAT
DNA 2: ATAGAAAATGAAAATGTGCACAAAAAAAATAAAAAT
B21: GTGCAC_site10117 (dsDNA)
DNA 1: AATAACTATATATGTGTGCACAAAAATTTGACATAA
DNA 2: TTATGTCAAATTTTTGTGCACACATATATAGTTATT
B22: GTGCAC_negctrl_site348 (dsDNA)
DNA 1: AAAATAAAAGAATAAAAATATGAAACTTTTTTAAAA
DNA 2: TTTTAAAAAAGTTTCATATTTTTATTCTTTTATTTT
B23: GTGCAC_negctrl_site36 (dsDNA)
DNA 1: TTATGTGATAAAAAAAAAATACAACAAAGTTAAATA
DNA 2: TATTTAACTTTGTTGTATTTTTTTTTTATCACATAA
B24: GTGCAC_site10686 (dsDNA)
DNA 1: TATCCATTTCTTTATGTGCACATTAAATATATTTGT
DNA 2: ACAAATATATTTAATGTGCACATAAAGAAATGGATA
B25: GTGCAC_negctrl_site132 (dsDNA)
DNA 1: AAAGTAACACACTAATATTTTAACAAATAATATATA
DNA 2: TATATATTATTTGTTAAAATATTAGTGTGTTACTTT
B26: GTGCAC_negctrl_site376 (dsDNA)
DNA 1: AACAGAATAATACTAAATGAACGATTTCTCTTTATG
DNA 2: CATAAAGAGAAATCGTTCATTTAGTATTATTCTGTT
B27: GTGCAC_site9562 (dsDNA)
DNA 1: ACATTTAAATAATATGTGCACAGCTATATTTTCTTT
DNA 2: AAAGAAAATATAGCTGTGCACATATTATTTAAATGT
B28: GTGCAC_negctrl_site402 (dsDNA)
DNA 1: AAAAAAAAAATACAACAAAGTTAAATAAATAAATAA
DNA 2: TTATTTATTTATTTAACTTTGTTGTATTTTTTTTTT
B29: GTGCAC_negctrl_site310 (dsDNA)
DNA 1: TTACTAAAAATTATTAATAAATAATAATTATAAATT
DNA 2: AATTTATAATTATTATTTATTAATAATTTTTAGTAA

Each binder was assayed against T1, HDP1 homeodomain-like (assay: gcPBM; about 25 ug protein; PBS, 1% milk, 0.2 mg/ml BSA, salmon testes DNA, 0.03% Triton X-100). Conditions: tags: N-terminal GST (pGEX-4T-1), kept; chain copies: 2; label: surface-attached array probe.
For B1, the binding signal was 6 ln median PBM intensity, better of two orientations.
With B2 the binding signal was 6.08 ln median PBM intensity, better of two orientations.
In the case of B3, the binding signal is reported as 11.2 ln median PBM intensity, better of two orientations.
For B4, the binding signal was 6.24 ln median PBM intensity, better of two orientations.
For B5, the binding signal was 6.09 ln median PBM intensity, better of two orientations.
For B6, the binding signal was 6.17 ln median PBM intensity, better of two orientations.
B7 was tested, and the binding signal was 5.87 ln median PBM intensity, better of two orientations.
For B8, the binding signal was 6.18 ln median PBM intensity, better of two orientations.
For B9, the binding signal was 6.07 ln median PBM intensity, better of two orientations.
With B10 the binding signal was 9.73 ln median PBM intensity, better of two orientations.
B11 was tested, and the binding signal was 6.08 ln median PBM intensity, better of two orientations.
With B12 the binding signal was 5.94 ln median PBM intensity, better of two orientations.
With B13 the binding signal was 11.1 ln median PBM intensity, better of two orientations.
In the case of B14, the binding signal is reported as 6.05 ln median PBM intensity, better of two orientations.
In the case of B15, the binding signal is reported as 9.06 ln median PBM intensity, better of two orientations.
In the case of B16, the binding signal is reported as 8.99 ln median PBM intensity, better of two orientations.
B17 was tested, and the binding signal was 5.92 ln median PBM intensity, better of two orientations.
In the case of B18, the binding signal is reported as 5.96 ln median PBM intensity, better of two orientations.
B19 was tested, and the binding signal was 6.01 ln median PBM intensity, better of two orientations.
In the case of B20, the binding signal is reported as 11.3 ln median PBM intensity, better of two orientations.
With B21 the binding signal was 11.2 ln median PBM intensity, better of two orientations.
For B22, the binding signal was 5.89 ln median PBM intensity, better of two orientations.
In the case of B23, the binding signal is reported as 6.32 ln median PBM intensity, better of two orientations.
For B24, the binding signal was 11.4 ln median PBM intensity, better of two orientations.
With B25 the binding signal was 6.15 ln median PBM intensity, better of two orientations.
For B26, the binding signal was 5.96 ln median PBM intensity, better of two orientations.
For B27, the binding signal was 10.9 ln median PBM intensity, better of two orientations.
With B28 the binding signal was 6.34 ln median PBM intensity, better of two orientations.
B29 was tested, and the binding signal was 5.75 ln median PBM intensity, better of two orientations.

These binders were tested against T2, SIP2 D1 in the same assay as above. Conditions: tags: N-terminal GST (pGEX-4T-1), kept; label: surface-attached array probe.
For B1, the binding signal was 6.79 ln median PBM intensity, better of two orientations.
B2 was tested, and the binding signal was 6.71 ln median PBM intensity, better of two orientations.
For B3, the binding signal was 9.12 ln median PBM intensity, better of two orientations.
B4 was tested, and the binding signal was 6.64 ln median PBM intensity, better of two orientations.
B5 was tested, and the binding signal was 6.78 ln median PBM intensity, better of two orientations.
B6 was tested, and the binding signal was 6.66 ln median PBM intensity, better of two orientations.
For B7, the binding signal was 6.63 ln median PBM intensity, better of two orientations.
In the case of B8, the binding signal is reported as 6.7 ln median PBM intensity, better of two orientations.
For B9, the binding signal was 6.67 ln median PBM intensity, better of two orientations.
In the case of B10, the binding signal is reported as 9.08 ln median PBM intensity, better of two orientations.
In the case of B11, the binding signal is reported as 6.78 ln median PBM intensity, better of two orientations.
In the case of B12, the binding signal is reported as 6.55 ln median PBM intensity, better of two orientations.
For B13, the binding signal was 8.92 ln median PBM intensity, better of two orientations.
For B14, the binding signal was 6.79 ln median PBM intensity, better of two orientations.
In the case of B15, the binding signal is reported as 9.7 ln median PBM intensity, better of two orientations.
B16 was tested, and the binding signal was 8.47 ln median PBM intensity, better of two orientations.
In the case of B17, the binding signal is reported as 6.52 ln median PBM intensity, better of two orientations.
For B18, the binding signal was 6.68 ln median PBM intensity, better of two orientations.
For B19, the binding signal was 6.79 ln median PBM intensity, better of two orientations.
In the case of B20, the binding signal is reported as 9.53 ln median PBM intensity, better of two orientations.
B21 was tested, and the binding signal was 9.72 ln median PBM intensity, better of two orientations.
With B22 the binding signal was 6.41 ln median PBM intensity, better of two orientations.
With B23 the binding signal was 6.76 ln median PBM intensity, better of two orientations.
For B24, the binding signal was 8.89 ln median PBM intensity, better of two orientations.
With B25 the binding signal was 6.76 ln median PBM intensity, better of two orientations.
In the case of B26, the binding signal is reported as 6.78 ln median PBM intensity, better of two orientations.
B27 was tested, and the binding signal was 9.19 ln median PBM intensity, better of two orientations.
In the case of B28, the binding signal is reported as 6.65 ln median PBM intensity, better of two orientations.
For B29, the binding signal was 6.58 ln median PBM intensity, better of two orientations.
